Measurements published in USRE47223 (Genentech, dated 2019).

Columns and labels:
TAT10772 polypeptide [1] = target: T1, TAT10772 polypeptide (human); test: Western blot, ELISA, FACS of TAT10772-expressing cells and/or immunohistochemistry
T1 construct: Cell-surface TAT10772 on engineered PC3 cells (PC3/A5.3B2), OVCAR-3, OVCA-432, SK-OV-3 cells and tumor tissue; also called TAT10772 target polypeptide

5-domain TAT10772 [2] = target: T2, 5-domain TAT10772 (human); test: ELISA, IgG, 5′-domain TAT10772
T2 construct: Recombinant portion of the extracellular domain, expressed in CHO cells; also called 5-mucin domain
T2 chain: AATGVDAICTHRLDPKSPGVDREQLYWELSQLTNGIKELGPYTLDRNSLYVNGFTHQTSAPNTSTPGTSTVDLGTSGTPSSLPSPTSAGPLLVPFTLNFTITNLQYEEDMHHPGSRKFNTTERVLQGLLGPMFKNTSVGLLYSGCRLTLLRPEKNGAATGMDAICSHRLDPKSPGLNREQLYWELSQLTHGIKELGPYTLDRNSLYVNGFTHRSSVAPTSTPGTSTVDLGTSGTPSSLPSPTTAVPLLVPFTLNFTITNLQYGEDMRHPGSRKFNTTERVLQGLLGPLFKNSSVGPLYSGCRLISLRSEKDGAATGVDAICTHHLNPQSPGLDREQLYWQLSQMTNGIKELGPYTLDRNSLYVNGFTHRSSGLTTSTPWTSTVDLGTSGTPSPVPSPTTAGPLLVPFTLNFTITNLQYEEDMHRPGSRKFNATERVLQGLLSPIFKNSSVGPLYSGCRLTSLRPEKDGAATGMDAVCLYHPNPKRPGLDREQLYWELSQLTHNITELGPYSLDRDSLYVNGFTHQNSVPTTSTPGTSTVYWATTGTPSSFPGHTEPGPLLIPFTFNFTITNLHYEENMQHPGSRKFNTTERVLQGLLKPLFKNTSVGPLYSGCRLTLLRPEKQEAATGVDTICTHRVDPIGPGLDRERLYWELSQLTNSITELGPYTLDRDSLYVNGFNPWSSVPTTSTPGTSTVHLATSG

5-domain TAT10772 [3] = target: T2, 5-domain TAT10772; test: Biacore SPR, 5′-domain TAT10772 over immobilized IgG
TAT10772 polypeptide [4] = target: T1, TAT10772 polypeptide; test: ELISA on OVCAR-3 cells, IgG
[5] = target: T3, CA125, human TAT10772 shed antigen (human, UniProt Q8WXI7 1-14451, limits assumed); test: ELISA, IgG, CA125
T3 construct: domain: entire shed antigen; Bought reagent; also called CA125 polypeptide

TAT10772 polypeptide [6] = target: T1, TAT10772 polypeptide; test: Scatchard analysis, IgG; form of TAT10772 not stated
TAT10772 polypeptide [7] = target: T1, TAT10772 polypeptide; test: Scatchard analysis, IgG

| Binder | binding result (TAT10772 polypeptide [1]) | Kd (5-domain TAT10772 [2]) [nM] | Kd (5-domain TAT10772 [3]) [nM] | koff (5-domain TAT10772 [3]) [s⁻¹] | kon (5-domain TAT10772 [3]) [M⁻¹ s⁻¹] | Kd (TAT10772 polypeptide [4]) [nM] | Kd [5] [nM] | Kd (TAT10772 polypeptide [6]) [nM] | binding result (TAT10772 polypeptide [7]) |
| --- | --- | --- | --- | --- | --- | --- | --- | --- | --- |
| murine 3A5 anti-TAT10772 antibody (antibody, V domains shown, Murine monoclonal antibody from hybridoma; also called monoclonal antibody 3A5; monoclonal antibody 3A5.3) VH: DVQLQESGPGLVNPSQSLSLTCTVTGYSITNDYAWNWIRQFPGNKLEWMGYINYSGYTTYNPSLKSRISITRDTSKNQFFLHLNSVTTEDTATYYCARWDGGLTYWGQGTLVTVSA VL: DIQMTQSSSFLSVSLGGRVTITCKASDLIHNWLAWYQQKPGNAPRLLISGATSLETGVPSRFSGSGSGNDYTLSIASLQTEDAATYYCQQYWTTPFTFGSGTKLEIK | binds |  |  |  |  |  |  |  |  |
| 3A5 chimera (mu3A5-H; SEQ ID NO: 11) (antibody, V domains shown, IgG; also called chimeric 3A5; chimeric antibody) VH: DVQLQESGPGLVNPSQSLSLTCTVTGYSITNDYAWNWIRQFPGNKLEWMGYINYSGYTTYNPSLKSRISITRDTSKNQFFLHLNSVTTEDTATYYCARWDGGLTYWGQGTLVTVSA VL: DIQMTQSPSSLSASVGDRVTITCKASDLIHNWLAWYQQKPGKAPKLLIYGATSLETGVPSRFSGSGSGTDFTLTISSLQPEDFATYYCQQYWTTPFTFGQGTKVEIKR |  | 2.3 | 2.7 | 0.000121 | 44800 | 0.3 | 0.3 | 0.57 |  |
| 3A5v1 (SEQ ID NO: 198) (antibody, V domains shown, Humanized IgG) VH: EVQLVESGGGLVQPGGSLRLSCAASGYSITNDYAWNWVRQAPGKGLEWVGYINYSGYTTYNPSLKSRFTISRDTSKNTLYLQMNSLRAEDTAVYYCARWASGLDYWGQGTLVTVSS VL: DIQMTQSPSSLSASVGDRVTITCKASDLIHNWLAWYQQKPGKAPKLLIYGATSLETGVPSRFSGSGSGTDFTLTISSLQPEDFATYYCQQYWTTPFTFGQGTKVEIKR |  | 3 | 4.8 | 0.000178 | 36900 | 0.5 | 0.6 |  |  |
| 3A5v6 (SEQ ID NO: 203) (antibody, V domains shown, Humanized IgG) VH: EVQLVESGGGLVQPGGSLRLSCAASGYSITNDYAWNWVRQAPGKGLEWVGYINYSGYTTYNPSLKSRFTISRDTSKNTFYLQMNSLRAEDTAVYYCARWDSGLTYWGQGTLVTVSS VL: DIQMTQSPSSLSASVGDRVTITCKASDLIHNWLAWYQQKPGKAPKLLIYGATSLETGVPSRFSGSGSGTDFTLTISSLQPEDFATYYCQQYWTTPFTFGQGTKVEIKR |  | 5.7 |  |  |  | 0.6 | 4.4 |  |  |
| 3A5v4 (SEQ ID NO: 201) (antibody, V domains shown, Humanized IgG) VH: EVQLVESGGGLVQPGGSLRLSCAASGYSITNDYAWNWVRQAPGKGLEWVGYINYSGYTTYNPSLKSRFTISRDTSKNTLYLQMNSLRAEDTAVYYCARWTSGLDYWGQGTLVTVSS VL: DIQMTQSPSSLSASVGDRVTITCKASDLIHNWLAWYQQKPGKAPKLLIYGATSLETGVPSRFSGSGSGTDFTLTISSLQPEDFATYYCQQYWTTPFTFGQGTKVEIKR |  | 2.4 |  |  |  | 0.8 | 0.3 |  |  |
| 3A5v1b 52 (SEQ ID NO: 206) (antibody, V domains shown, Humanized IgG, 3A5.v1 with the CDR-H2 glycosylation site removed at position 52) VH: EVQLVESGGGLVQPGGSLRLSCAASGYSITNDYAWNWVRQAPGKGLEWVGYISYSGYTTYNPSLKSRFTISRDTSKNTLYLQMNSLRAEDTAVYYCARWASGLDYWGQGTLVTVSS VL: DIQMTQSPSSLSASVGDRVTITCKASDLIHNWLAWYQQKPGKAPKLLIYGATSLETGVPSRFSGSGSGTDFTLTISSLQPEDFATYYCQQYWTTPFTFGQGTKVEIKR |  |  |  |  |  |  |  | 0.47 |  |
| 3A5v3 (SEQ ID NO: 200) (antibody, V domains shown, Humanized IgG) VH: EVQLVESGGGLVQPGGSLRLSCAASGYSITNDYAWNWVRQAPGKGLEWVGYINYSGYTTYNPSLKSRFTISRDTSKNTFYLQMNSLRAEDTAVYYCARWASGLSYWGQGTLVTVSS VL: DIQMTQSPSSLSASVGDRVTITCKASDLIHNWLAWYQQKPGKAPKLLIYGATSLETGVPSRFSGSGSGTDFTLTISSLQPEDFATYYCQQYWTTPFTFGQGTKVEIKR |  | 1.6 | 3.6 | 0.00013 | 36200 | 0.2 | 0.5 |  |  |
| 3A5v1b 54 (SEQ ID NO: 207) (antibody, V domains shown, Humanized IgG, 3A5.v1 with the CDR-H2 glycosylation site removed at position 54) VH: EVQLVESGGGLVQPGGSLRLSCAASGYSITNDYAWNWVRQAPGKGLEWVGYINYAGYTTYNPSLKSRFTISRDTSKNTLYLQMNSLRAEDTAVYYCARWASGLDYWGQGTLVTVSS VL: DIQMTQSPSSLSASVGDRVTITCKASDLIHNWLAWYQQKPGKAPKLLIYGATSLETGVPSRFSGSGSGTDFTLTISSLQPEDFATYYCQQYWTTPFTFGQGTKVEIKR |  |  |  |  |  |  |  | 0.37 |  |
| 3A5v4b 52 (SEQ ID NO: 208) (antibody, V domains shown, Humanized IgG, 3A5.v4 with the CDR-H2 glycosylation site removed at position 52) VH: EVQLVESGGGLVQPGGSLRLSCAASGYSITNDYAWNWVRQAPGKGLEWVGYISYSGYTTYNPSLKSRFTISRDTSKNTLYLQMNSLRAEDTAVYYCARWTSGLDYWGQGTLVTVSS VL: DIQMTQSPSSLSASVGDRVTITCKASDLIHNWLAWYQQKPGKAPKLLIYGATSLETGVPSRFSGSGSGTDFTLTISSLQPEDFATYYCQQYWTTPFTFGQGTKVEIKR |  |  |  |  |  |  |  | 0.46 |  |
| 3A5v5 (SEQ ID NO: 202) (antibody, V domains shown, Humanized IgG) VH: EVQLVESGGGLVQPGGSLRLSCAASGYSITNDYAWNWVRQAPGKGLEWVGYINYSGYTTYNPSLKSRFTISRDTSKNTFYLQMNSLRAEDTAVYYCARWDAGLTYWGQGTLVTVSS VL: DIQMTQSPSSLSASVGDRVTITCKASDLIHNWLAWYQQKPGKAPKLLIYGATSLETGVPSRFSGSGSGTDFTLTISSLQPEDFATYYCQQYWTTPFTFGQGTKVEIKR |  | 10.2 |  |  |  | 0.6 | 8.2 |  |  |
| 3A5v2 (SEQ ID NO: 199) (antibody, V domains shown, Humanized IgG) VH: EVQLVESGGGLVQPGGSLRLSCAASGYSITNDYAWNWVRQAPGKGLEWVGYINYSGYTTYNPSLKSRFTISRDTSKNTFYLQMNSLRAEDTAVYYCARWASGLSHWGQGTLVTVSS VL: DIQMTQSPSSLSASVGDRVTITCKASDLIHNWLAWYQQKPGKAPKLLIYGATSLETGVPSRFSGSGSGTDFTLTISSLQPEDFATYYCQQYWTTPFTFGQGTKVEIKR |  | 3.7 | 3.6 | 0.000121 | 33400 | 0.7 | 0.8 |  |  |
| 3A5v7 (SEQ ID NO: 204) (antibody, V domains shown, Humanized IgG) VH: EVQLVESGGGLVQPGGSLRLSCAASGYSITNDYAWNWVRQAPGKGLEWVGYINYSGYTTYNPSLKSRFTISRDTSKNTLYLQMNSLRAEDTAVYYCARWKSGLDSWGQGTLVTVSS VL: DIQMTQSPSSLSASVGDRVTITCKASDLIHNWLAWYQQKPGKAPKLLIYGATSLETGVPSRFSGSGSGTDFTLTISSLQPEDFATYYCQQYWTTPFTFGQGTKVEIKR |  | 3.3 |  |  |  | 0.8 | 1.2 |  |  |
| 3A5.F-graft (SEQ ID NO: 13), IgG (antibody, V domains shown, IgG) VH: EVQLVESGGGLVQPGGSLRLSCAASGYSITNDYAWNWVRQAPGKGLEWVGYINYSGYTTYNPSLKSRFTISRDNSKNTFYLQMNSLRAEDTAVYYCARWDGGLTYWGQGTLVTVSS VL: DIQMTQSPSSLSASVGDRVTITCKASDLIHNWLAWYQQKPGKAPKLLIYGATSLETGVPSRFSGSGSGTDFTLTISSLQPEDFATYYCQQYWTTPFTFGQGTKVEIKR |  | 90.3 | 10 | 0.000292 | 28500 | 0.6 | 51.4 |  |  |
| 3A5v4b.54 (SEQ ID NO:209) (antibody, V domains shown) VH: EVQLVESGGGLVQPGGSLRLSCAASGYSITNDYAWNWVRQAPGKGLEWVGYINYAGYTTYNPSLKSRFTISRDTSKNTLYLQMNSLRAEDTAVYYCARWTSGLDYWGQGTLVTVSS VL: DIQMTQSPSSLSASVGDRVTITCKASDLIHNWLAWYQQKPGKAPKLLIYGATSLETGVPSRFSGSGSGTDFTLTISSLQPEDFATYYCQQYWTTPFTFGQGTKVEIKR |  |  |  |  |  |  |  |  | binds |
| 3A5.L-graft (SEQ ID NO: 12), IgG (antibody, V domains shown, IgG) VH: EVQLVESGGGLVQPGGSLRLSCAASGYSITNDYAWNWVRQAPGKGLEWVGYINYSGYTTYNPSLKSRFTISRDNSKNTLYLQMNSLRAEDTAVYYCARWDGGLTYWGQGTLVTVSS VL: DIQMTQSPSSLSASVGDRVTITCKASDLIHNWLAWYQQKPGKAPKLLIYGATSLETGVPSRFSGSGSGTDFTLTISSLQPEDFATYYCQQYWTTPFTFGQGTKVEIKR |  |  |  |  |  | 7.1 |  |  |  |
| 3A5v8 (SEQ ID NO: 205) (antibody, V domains shown, Humanized IgG) VH: EVQLVESGGGLVQPGGSLRLSCAASGYSITNDYAWNWVRQAPGKGLEWVGYINYSGYTTYNPSLKSRFTISRDTSKNTLYLQMNSLRAEDTAVYYCARWTSGLDSWGQGTLVTVSS VL: DIQMTQSPSSLSASVGDRVTITCKASDLIHNWLAWYQQKPGKAPKLLIYGATSLETGVPSRFSGSGSGTDFTLTISSLQPEDFATYYCQQYWTTPFTFGQGTKVEIKR |  | 2.6 | 2.3 | 0.000127 | 55100 | 0.5 | 0.4 |  |  |
